The chains are these.
B1: 4057751 (peptide)
chain: APLEPHYPGDNATPEQLAKYAADLRRYINKLTRPRY
B2: 4057788 (peptide)
chain: AAPLEPHYPGDDATPQQMAHYYSELRRYINKLTRPRY
B3: 4058057 (peptide)
chain: PAPLEPHYPGDDATPQQMARYAAELRRYINLLTRPRY
B4: 4058055 (peptide)
chain: B3 chain with P1Y
B5: 4057774 (peptide)
chain: B2 chain with A1P, H7S, S23A
B6: 4057893 (peptide)
chain: PLEPHYPGDNATPEQLAKYAADLRRYINKLTRPRY
B7: 4057785 (peptide)
chain: PAPLEPTYPGDNATPEQLAHYYSELRRYINKLTRPRY
B8: 4057777 (peptide)
chain: B2 chain with H7S, D12N, Q16E
B9: 4057766 (peptide)
chain: B3 chain with D12N, Q16E, R20K, L31K
B10: 4057891 (peptide)
chain: HAPLEPHYPGDNATPEQMAKYAADLRRYINKLTRPRY
B11: 4057756 (peptide)
chain: B10 chain with H1P, D24A
B12: 4057903 (peptide)
chain: B10 chain with H1G, K20R, D24E
B13: 4058152 (peptide)
chain: B6 chain with H5S, L16M, D22E, K29L
B14: 4058067 (peptide)
chain: B6 chain with H5T, L16M, K18R, D22A
B15: 4058297 (peptide)
chain: B7 chain with T7V, H20R
B16: 4058166 (peptide)
chain: B10 chain with H1A, H7K, M18L, D24E
B17: 4058155 (peptide)
chain: B10 chain with H1P, H7E, D24E, K31L
B18: 4058150 (peptide)
chain: B10 chain with H7S, D24E
B19: 4058159 (peptide)
chain: B10 chain with H1A, H7K, D24E
B20: 4058075 (peptide)
chain: B10 chain with H1Y, H7E, Q17E, D24E
B21: 4058149 (peptide)
chain: B10 chain with H1G, H7S, D24E
B22: 4058151 (peptide)
chain: B10 chain with H1Y, H7S, D24E
B23: 4058079 (peptide)
chain: B10 chain with H1P, Q17E, D24E

Numbering of substitutions follows the chain as printed.

In the first experiment the target is T1, human Y4 receptor (human, UniProt P50391 1-375). As to the kind of experiment: 125I-PP displacement.
T1 sequence (P50391 whole entry): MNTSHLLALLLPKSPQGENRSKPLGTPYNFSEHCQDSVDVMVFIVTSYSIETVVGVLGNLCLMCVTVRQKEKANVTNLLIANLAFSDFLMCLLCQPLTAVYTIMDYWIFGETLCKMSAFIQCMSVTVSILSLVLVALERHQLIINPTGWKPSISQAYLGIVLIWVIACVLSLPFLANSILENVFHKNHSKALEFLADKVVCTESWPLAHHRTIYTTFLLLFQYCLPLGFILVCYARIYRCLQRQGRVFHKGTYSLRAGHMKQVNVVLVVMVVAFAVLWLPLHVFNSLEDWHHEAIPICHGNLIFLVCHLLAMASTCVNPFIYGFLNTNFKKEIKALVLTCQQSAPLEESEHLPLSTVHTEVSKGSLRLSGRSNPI
For the molecule B1, the IC50 came to 0.065 nM.

In the case of B2, the half-inhibitory concentration (IC50) amounted to 0.155 nM.

On to B3, for which the IC50 amounted to 0.111 nM.

Molecule B4 gave a half-inhibitory concentration (IC50) of 0.11 nM. The IC50 values of the last two molecules are within 1.5-fold of each other.

B5 had an IC50 of 0.227 nM.

B6: the IC50 stood at 0.144 nM.

In turn, B7 gave an IC50 of 0.134 nM. The IC50 values of the last two molecules are within 1.5-fold of each other.

Molecule B8 showed an IC50 of 0.088 nM.

Regarding B9, the IC50 is 0.089 nM.

B10 returned an IC50 of 0.146 nM. This IC50 is about 1.6-fold higher than that of the molecule before.

Take B11: the 50% inhibitory concentration (IC50) was 0.124 nM.

B12 showed an IC50 of 0.09 nM.

The target in the next experiment is T1, human Y4 receptor. The experiment is described as follows: 125I-PP displacement. The source holds these as a separate data set.
In the case of B13, the IC50 amounted to 0.088 nM.

The molecule B14 registered an IC50 of 0.047 nM.

As for B15, the IC50 is 0.043 nM. The IC50 values of the last two molecules are within 1.5-fold of each other.

As to B16, the IC50 was 0.056 nM.

Consider B17, for which the IC50 was determined as 0.125 nM.

The molecule B18 came in with a concentration for half-maximal inhibition (IC50) of 0.113 nM.

As to B19, the 50% inhibitory concentration (IC50) is 0.106 nM.

In the case of B20, the IC50 came out at 0.058 nM.

For B21, the IC50 amounted to 0.07 nM.

Take B22: the IC50 amounted to 0.058 nM.

The molecule B23 displayed an IC50 of 0.071 nM.
